B1: anti-CD22 CAR3 (prot CAR3) (other)
chain: QVQLQQSGPGLVEPSQTLSLTCAISGDSVSSDSVAWNWIRQSPSRGLEWLGRTYYRSTWYNDYAGSVKSRITINPDTSKNQFSLQLTSVTPEDTAVYYCTRSRHNTFRGMDVWGQGTTVTVSGGGGSGGGGSGGGGSDIVMTQSPSSLSASVGDRVTITCRASQTISSYLNWYQQKPGKAPKLLIYDASSLQSGVPSRFSGSGSGTDFTLTINSLQPEDFATYYCQQSYTTPITFGQGTRLEIKTTTPAPRPPTPAPTIASQPLSLRPEACRPAAGGAVHTRGLDFACDIYIWAPLAGTCGVLLLSLVITLYCKRGRKKLLYIFKQPFMRPVQTTQEEDGCSCRFPEEEEGGCELRVKFSRSADAPAYQQGQNQLYNELNLGRREEYDVLDKRRGRDPEMGGKPRRKNPQEGLYNELQKDKMAEAYSEIGMKGERRRGKGHDGLYQGLSTATKDTYDALHMQALPPR
notes: Single-chain CAR on T cells; range counted on the printed copy
B2: anti-CD22 CAR15 (prot CAR15) (other)
chain: QVQLVQSGAEVKKPGASVKVSCKASGYTFTSYYMHWVRQAPGQGLEWMGIINPSGGSTSYAQKFQGRVTMTRDTSTSTVYMELSSLRSEDTAVYYCAREDSGSGAFDIWGQGTLVTVSGGGGSGGGGSGGGGSEIVLTQSPLSLPVTPGEPASISCRSSRSLLSYHGYNYLDWYLQKPGQSPQLLIFVGSNRAPGVPDRFSGSGSGTDFTLNISRVEAEDVGVYYCMQSLQTPRTFGQGTKVEIKTTTPAPRPPTPAPTIASQPLSLRPEACRPAAGGAVHTRGLDFACDIYIWAPLAGTCGVLLLSLVITLYCKRGRKKLLYIFKQPFMRPVQTTQEEDGCSCRFPEEEEGGCELRVKFSRSADAPAYQQGQNQLYNELNLGRREEYDVLDKRRGRDPEMGGKPRRKNPQEGLYNELQKDKMAEAYSEIGMKGERRRGKGHDGLYQGLSTATKDTYDALHMQALPPR
notes: Original clone number 15; Single-chain CAR on T cells; range counted on the printed copy; also called CAR15 10
B3: anti-CD22 CAR8 (prot CAR8) (other)
chain: QVQLQQSGPGLVKPSQTLSLTCAISGDSVSSSSAAWNWIRQSPSRGLEWLGRTYYRSAWYNDYAVSVKSRITINPDTSKNQFSLQLNSVTPEDTAVYYCARESVLLDGMDVWGRGTTVTVSGGGGSGGGGSGGGGSAIRMTQSPSTLSASVGDRVTITCRASQSISTYLNWYQQKAGKAPRLLIHDASSLQSGVPSRFSGSGSGTDFTLTISSLQPEDFATYYCQQSYSTPLTFGGGTKVEIKTTTPAPRPPTPAPTIASQPLSLRPEACRPAAGGAVHTRGLDFACDIYIWAPLAGTCGVLLLSLVITLYCKRGRKKLLYIFKQPFMRPVQTTQEEDGCSCRFPEEEEGGCELRVKFSRSADAPAYQQGQNQLYNELNLGRREEYDVLDKRRGRDPEMGGKPRRKNPQEGLYNELQKDKMAEAYSEIGMKGERRRGKGHDGLYQGLSTATKDTYDALHMQALPPR
notes: Original clone number 8; Single-chain CAR on T cells; range counted on the printed copy; also called CAR8 6
B4: anti-CD22 CAR2 (prot CAR2) (other)
chain: QVQLQQSGPGLVKPSQTLSLTCAISGDSVSSNSAAWNWIRQSPSRGLEWLGRTYYRSKWYNDYAVSVKSRITINPDTSKNQFSLQLNSVTPEDTAVYYCARASMTGGYSYGDAFDIWGQGTLVTVSGGGGSGGGGSGGGGSAIRMTQSPSSLSASVGDRVTITCRASQSISSYLNWYQQKPGKAPKLLIYAASSLQSGVPSRFSGSGSGTDFSLTISSLQPEDSATYYCQQTYSTPLTFGQGTKVEIKTTTPAPRPPTPAPTIASQPLSLRPEACRPAAGGAVHTRGLDFACDIYIWAPLAGTCGVLLLSLVITLYCKRGRKKLLYIFKQPFMRPVQTTQEEDGCSCRFPEEEEGGCELRVKFSRSADAPAYQQGQNQLYNELNLGRREEYDVLDKRRGRDPEMGGKPRRKNPQEGLYNELQKDKMAEAYSEIGMKGERRRGKGHDGLYQGLSTATKDTYDALHMQALPPR
notes: as for B1
B5: anti-CD22 CAR9 (prot CAR9) (other)
chain: QVQLQQSGPGLVQPSQTLSLTCVISGDSVSSNSATWNWIRQSPSRGLEWLGRTYYRSKWYNDYAVSVKSRITINPDTSKNQFSLQLNSVTPEDTAVYYCARDGDGGSYYDYYYYGMDVWGQGTTVTVSGGGGSGGGGSGGGGSDIQLTQSPSSLSTSVGDRVTITCRASQSISTYLNWYQQKPGKAPKLLIYAASNLQSGVPSRFSGSGSGTDFTLTISSLQPEDFATYFCQQSYTTPITFGQGTRLEIKTTTPAPRPPTPAPTIASQPLSLRPEACRPAAGGAVHTRGLDFACDIYIWAPLAGTCGVLLLSLVITLYCKRGRKKLLYIFKQPFMRPVQTTQEEDGCSCRFPEEEEGGCELRVKFSRSADAPAYQQGQNQLYNELNLGRREEYDVLDKRRGRDPEMGGKPRRKNPQEGLYNELQKDKMAEAYSEIGMKGERRRGKGHDGLYQGLSTATKDTYDALHMQALPPR
notes: Original clone number 9; Single-chain CAR on T cells; range counted on the printed copy; also called CAR9 7
B6: anti-CD22 CAR7 (prot CAR7) (other)
chain: QVQLQQSGPGLVEPSQTLSLTCAISGDSVSSDSVAWNWIRQSPSRGLEWLGRTYYRSTWYNDYAGSVKSRITINPDTSKNQFSLQLNSVTPEDTAVYYCARDRNGMDVWGQGTMVTVSGGGGSGGGGSGGGGSDIVMTQSPSSLSASVGDRVTITCRASQSISSYLNWYQQKPGKAPKLLIYDASNLETGVPSRFSGSGSGTDFTFTITSLQPEDFATYYCQQSYTTPLTFGGGTKVEIKTTTPAPRPPTPAPTIASQPLSLRPEACRPAAGGAVHTRGLDFACDIYIWAPLAGTCGVLLLSLVITLYCKRGRKKLLYIFKQPFMRPVQTTQEEDGCSCRFPEEEEGGCELRVKFSRSADAPAYQQGQNQLYNELNLGRREEYDVLDKRRGRDPEMGGKPRRKNPQEGLYNELQKDKMAEAYSEIGMKGERRRGKGHDGLYQGLSTATKDTYDALHMQALPPR
notes: Single-chain CAR on T cells; range counted on the printed copy; also called CAR7 5

molecular target: T1, recombinant CD22 protein corresponding to the whole extracellular domain of CD22 (human; mouse, UniProt P20273 20-687); test: flow cytometry, CAR T cells stained with recombinant full length CD22 protein
T1 construct: range 20-687; also called full length recombinant CD22 protein; CD22 recombinant protein (full length)
Procedure: CAR detection at the surface of T-cells is performed using a recombinant protein consisting on the extracellular domain of the human CD22 protein (whole protein, distal portion of CD22 or proximal portion of CD22) fused together with a murine IgG1 Fc fragment. Binding of this protein to the CAR molecule is detected with a PE-conjugated secondary antibody (Jackson Immunoresearch) targeting the mouse Fc portion of the protein, and analyzed by flow cytometry.
Then, CAR positive cells frequency (% of CAR-expressing cells over the total number of cells) was assessed by flow cytometry using a recombinant CD22 protein corresponding to the membrane proximal domain of CD22 or a recombinant CD22 protein corresponding to the whole extracellular domain of CD22 (FIG. 5).

Binding result, binds:
B1, B2, B3, B4, B5, B6

Source: patent US20210100839A1 (CELLECTIS, published 2021)
